Drawing on article doi:10.1101/2025.03.12.642685, this text covers stoichiometry N for two substances.

Assay [1] concerns the target PorK (P. gingivalis (endogenous in P. gingivalis W50 EK18)). Briefly: cryo-EM structure.
Assay [2] addresses PorN (P. gingivalis (endogenous in P. gingivalis W50 EK18)). Briefly: cryo-EM structure.

Where “and” joins values, the source holds several entries; their conditions need not be identical. Equal values may be shown once.

With PorK (natural protein), the stoichiometry N in assay [1] was 31 to 35 (2×) and 33.
For PorN (natural protein), the stoichiometry N in assay [2] is 31 to 35 (2×) and 33.

As a reminder, the stoichiometry N is the number of molecules, sites or subunits per partner or assembly.
